According to the DeepSol protein solubility set:

Experiment: soluble on expression in E. coli; label from the status in PepcDB or PDB records

SRNICYDAFVSYSERDAYWVENLMVQELENFNPPFKLCLHKRDFIHGKWIIDNIIDSIEKSHKTVFVLSENFVKSEWCKYELDFSHFRLFDENNDAAILILLEPIEKKAIPQRFCKLRKIMNTKTYLEWPMDEAQREGFWVNLRAAIKS
soluble on expression in E. coli: soluble

MSLAESVFAERIVQNLLDTDFYKLTMMQAVLHNYPNAEVEWEFRCRNAEDLRPYLAEIRYQIERLAEVEVTADQLAFLERIPFMKPDFIRFLSLFRFNLRYVHTGIEDGQLAIRLRGPWLHVILFEVPLLAIVSEVRNRYRYREVVLEQVGEQLYRKLDWLSAQASSEELAEFQVADFGTRRRFSYRTQEEVVHILKRDFPGRFVGTSNVHLAREYDLKPIGTMAHEWLMAHQQLGPRLVDSQQAALDCWVREYRGQLGIALTDCITMDAFLDDFDLYFAKLFDGLRHDSGDPLAWAEKAIAHYRRLGIDPLSKTLVFSDGLDMPKALQLFRALRGKINVSFGIGTNLTCDIPGVEPMNIVLKMTACNGHPVAKISDAPGKTQCRDENFVAYLRHVFNVPAEGHHHHHH
soluble on expression in E. coli: soluble

SQKQKALLQRVETDITSVVDNFTQIVNVSRVSDPPVKNSQETYMMEMRASRMATQVLLKDFLMSLWSVVNLLPHQWWQVQAADSLLKLVSELKQTAIFSGFASLNDHVEQRIEEFDQEAEKTNRLLARIADDASANLKELESHYYSSAQRLTLDI
soluble on expression in E. coli: not soluble

YPNVEVFGEVPIQVVNAEPLGMHSNVMEAMFTAITRAKKNVYIETPYFIPTECLLQAIQTASMSGIDVRLVMPKRSDNDFVQYASNSYVEKLLRNKVRVYQYVNGFTHSKLMIVDDELVVVGSANMDIRSLELLFETNLFIYDKKVAQTVRDIYHTDMNNSKELNLRDWLQR
soluble on expression in E. coli: not soluble

MALHQRMFSGNKINIVRKNHPLFLGYLNEQLCAYASAQLSQKEGRLLYLGVDEKYRQQGIATALMAQVWNFLHDSCQDKITLVQSDKAQAAGKLYKKLGFKTIRRLLSAQLIVN
soluble on expression in E. coli: not soluble

MGSDKIHHHHHHMAIQQLEKPEHAGRRTAPEITVSGIGKRYGATPVLMDVTLSVTPGEIHGIMGENGAGKSTLLKILGGAIMADSGTMELDGNPVRITTPRDAISQGISLISQELALIPNLSVLENVFLGRWSNRGSLLRPTKDGDHFARLLEETGFDLDPRATVGNLPIGQQQQVEILKALARGAKVLCMDEPTAVLNEAEKEKLLQVIKRLAQTGTTILIVSHYLEEVLELVDRVTILRDGQHIVTEDAAGHTPESLVRLMVGRDVDFLLPEIRQVQSQADTVLRVVGLTSAKVKEISFQVRRGEILGIAGLVGSGRSETLLAVFGADRTTGGHVEVNGRRIRASSIRDAIKAGIALIPESRKEQGLVMSRPASENIALSTLSGRSWAGFVSARREKAAVKDVSRSVDLRGARPGQPIANLSGGNQQKALFAKWLLDPPAVLLVDEPTRGVDIAAKARIHSIIAELAAKGTAVIVVSSELEEVLGLSHRIHVMRHGRIVAEFDRNASRDEVMTSAFLK
soluble on expression in E. coli: not soluble

MSIFNGIKEEQMDILREVGNIGAGHSASAMAQLLNRKIDMEVPFAKLLSFDELVDFFGGADVPVASIFLRMEGDLTGSMFFIMPFFQAEQFIRELIGNPDFDIEDLGEDHMSSSALHELGNILAGSYLTALADLTKLQLYPSVPEVSLDMFGAVISEGLMELSQVGEHAIVVDTSIFDQSHQQELKAHMFMLPDYDSFEKLFVALGASL
soluble on expression in E. coli: soluble

MGSDKIHHHHHHMEHFLYRLNFSTALHIGKDAGGPSLDDGQMIIHADTLFAALCCEAVRGGRITQLVKYFADGILSISDALPYAGDEIFLPRPVLFTENRKRAGDSALAKALKNKDYIPLSFFGDYLKSMQQLDFNLESLKSESDFGYLTTLTRVAIKGNSPPLPYHVAAWRFADGCGLYIIVRSEQEEARTMFASLLAELGLSGIGGKQSSGWGKFEVKPGPVPDELLRLLEDKQAEYQMLMGTALPVDNELDTVLLNGWYKLLRRGGFIRSESYAARQMKKKTIYMLASGSCLRSRFKGAMLDLSDNGAHPVWRCGNTLFVGVTI
soluble on expression in E. coli: not soluble

MSLIILTRDDEPRIFTPDSDAASPALHSTSPLPDPASASPLHREEKILPKVCNIVSCLSFSLPASPTDSGLASPTIITREGQQFWAKCLIWKYQLYLHGLHKKSDGRRDKQISASPST
soluble on expression in E. coli: soluble

MSLNTREKYLSNVNRLVIKVGSSTLTHPSGLLNFYKIEHIVRQIADLHNQGIKVILVSSGAIGAGIGKLRLKERPKTIPEKQAAAAVGQGVLMHTYEKLFAEYGQIVGQILITREDLSSKKRVVNVQNTFSALLDHGIIPIVNENDATVVEEIKFGDNDTLSARVASLIKADLLILLSDIDGLYDSNPAVNKNAVLIDTVNEVNEEVKASAGGAGSKLGTGGMATKIRAAEIATENGISMVIANGEKQEAIRNILNFENEGTLFIPKNKEGHHHHHH
soluble on expression in E. coli: soluble

MVNSKVLNTLEYQQVKQQLAPYLVSATGQQALNELHPMTSVADIQRALDETNDGAEVYRLKGGIPVARLADIKPHMKRLAIGATLNGSELGQVGRVLRTTRAITRFFAELLEDAPELEHHHHHH
soluble on expression in E. coli: not soluble

NHYLQAEVVTAFLGLQHAAKRADFNLQPASTYRDFNRQMLIWNAKFNGKRKIHNDASKQIDITTLTDLAKIKAILRWSAVPGASRHHWGTEIDIFDPDLLPQGQHLQLEPWEYQSNGYFAPLIKWLHQHSASFGFYFPFDGIQNSQ
soluble on expression in E. coli: not soluble

MHHHHHHMKNVIFEDEEKSKMLARLLKSSHPEDLRAANKLIKEMVQEDQKRMEKISKRVNAIEEVNNNVKLLTEMVMSHSQGGAAAGSSEDLMKELYQRCERMRPTLFRLASDTEDNDEALAEILQANDNLTQVINLYKQLVRGEEVNGDATAGSIPG
soluble on expression in E. coli: soluble

MNPDKTVLSCHNPEWRGERPAPSLIARCAQLAMLLEVSASPKPGNVDREHNYPDTCFEHFVASSVAVYPVFELAAKSTGRIGQLLRSAVYESSAWQQGGNTHFGAFLLLIPLAMAAGEISREQGEQPGCGKTFFRIEAEEFENLASHAHAFVRETDCEDAVEFYRAFGHAGVRVNSVEEFDLEDPEATSDLRNQNITLYSLMEIAKGYDLIANEWTSGFGRCLEGAKIILDFMDARNCREEALAGGSVSICSGTGINEAVVYTFLKLLSKHRDTFIQTKFDAETADYVSSRAGEVLSGWEISGKKAGDFASILPRIQEFDSELLDKRINPGSTADIIIAALFIALLGGLRF
soluble on expression in E. coli: not soluble

MRLFTPEAMREADRKAVERGYPSLLLMEWAGMKAARVYLELFGKAPALVLAGKGNNGGDGLVLARHLLLEGVGVRVYAAGGQTGDALLALQALLAHGVEVRPLEEASFREGEVVVDALFGTGLKGPLTDFYAELVERVNRAGLPVLALDLPSGLPFSPHVRATATVAFAALKTPHLFQREACGKLYLAEIGLPKPLLEREDLPEVASPEALRPLLPRRPLTAHKGSVGRVGVLGGYQGEDLRYAGAPLLAALGAYRMGAGLVHLVAPEGTPLEPLEAVFHPVPSPALPPLKAEALAVGMGGGPWGRAWALKALEARLPTVLDADALHPEVAEAYRKAGVPAVLTPHAGEAGRLLGISPEEVAKDPLGAARALAERTGLAVVLKGNPTVVAEGERLSVNPTGNPALATGGTGDVLSGAIAALLAAGLRPFDAARLGVFLHGLAGDLLAEEKGVGLLAREVAEALPRARRLLQEGRVPPAFFPR
soluble on expression in E. coli: soluble

MAHHHHHHMEAKLSSALRTCDKCRTYADLCRTFEAKVSPIVEQALQSPLVKAPRDHTTPDECSPRVAELREALCTRLGADKATPAEDDVWFLIYRTVSNFVERQQRKRSRDQDGTSLSTLVTNCFVLLCTRTLPQLDHMKLRWGFLKKERAALESSDAYVHSNASERRKLQLNATSVLSVFSERAHKHSFTFVWMLCVEKAGEAALHVHLLHRVGSVVLPYLTNPLVLADYLTGCFSSGGIISILSLQGLFLLMLDHGLEYPNYYEQLYSLLTPDVFASRYRYELFRLLDLSMTSLRVPSYIAASVIKRVAQVSLMAPAPTLYFSLPFLRKVLQSHPNCLALIHRSSREAVIPDDMADQDTDTVTAQSAKAQAMRDTAALFDGRDPFDDRAKLLETHALSSTLWELTALERHFMPVVPLMVSAFSSTAEDKTPLRYEKSYGRLFTAEVTRAIDCHNLPTIAYEAPSEADPTDLLSL
soluble on expression in E. coli: soluble

GMNTLLKQLKPYPFARLHEAMQGISAPEGMEAVPLHIGEPKHPTPKVITDALTASLHELEKYPLTAGLPELRQACANWLKRRYDGLTVDADNEILPVLGSREALFSFVQTVLNPVSDGIKPAIVSPNPFYQIYEGATLLGGGEIHFANCPAPSFNPDWRSISEEVWKRTKLVFVCSPNNPSGSVLDLDGWKEVFDLQDKYGFIIASDECYSEIYFDGNKPLGCLQAAAQLGRSRQKLLMFTSLSKRSNVPGLRSGFVAGDAELLKNFLLYRTYHGSAMSIPVQRASIAAWDDEQHVIDNRRLYQEKFERVIPILQQVFDVKLPDASFYIWLKVPDGDDLAFARNLWQKAAIQVLPGRFLARDTEQGNPGEGYVRIALVADVATCVKAAEDIVSLYR
soluble on expression in E. coli: soluble

MITVPHSRKVELDEIDRAILRLLQEDGRMSYSEISRRINVPESTVRARVNRLVKEGVIRKFAALINPFKAGYEIVAFIAVDAEPAKVKQVVEELAKFPEVDVLGIVTGAHDIFMQVTVKDLQELERFILEKMAKIDGIKSTETSILTSVKKWGYARVF
soluble on expression in E. coli: soluble

MVGGLTHVDEKGVKMVEIGYKDVVFRKAVAKGRIKLKPETVKLIKEGKIEKGNVLATAQIAGILAVKRTPELIPLCHPIPITGVDITFDFGEDYIEVTCEVRAYYKTGVEMEALTGVTVALLAIWDMVKAVEKDEKGQYPYTRIENVHVVEKVKTHNSQ
soluble on expression in E. coli: soluble

GSHMVKDTLFSTPIAKLGDFIFDENVAEVFPDMIQRSVPGYSNIITAIGMLAERFVTADSNVYDLGCSRGAATLSARRNINQPNVKIIGIDNSQPMVERCRQHIAAYHSEIPVEILCNDIRHVEIKNASMVILNFTLQFLPPEDRIALLTKIYEGLNPNGVLVLSEKFRFEDTKINHLLIDLHHQFKRANGYSELEVSQKRTALENVMRTDSIETHKVRLKNVGFSQVELWFQCFNFGSMIAVK
soluble on expression in E. coli: soluble

MFSPLRRLTTTGLQLQKLQKLQKLQQFQPARAVHLTVFQQKGHSKWQNIKAVKGKNDLIRSKATNFLLRKVRGAVSRGGFDMKLNRELADLESEFRAQGLPLDTLKNFLQKMKDKPEVEYSFDIIGPSGIFLIVTAETSNKKAFENDLRKYFNKLGGFRLAADGGVRSWFEEKGVVHVDTKKGGKILNIEEMEEIGLEFDAEEVLLIEEDSTKKFELICDAKSLQTLENGLGKGGFSILQSEIEFRPVHPIDCPEAEEPKVQKLYEMLQEDEQVRQIFDNITPDE
soluble on expression in E. coli: not soluble

MGSDKIHHHHHHMQALQTFNFEELPVRTLEVDGEPYFIGKDVADILGYANGRDALSKHVDEDDKKVLTSRNTTLENLPNRGLTAVNESGLYSLIFSSKLESAKRFKRWVTSDVLPAIRKYGIYATDNVIEQTLKDPDYIITVLTEYKKEKEQNLLLQQEIGELKPKADYVDEILKSTGTLATTQIAADYGISAQKLNKLLHEARLQRKVNKQWVLYSEHMGKSYTDSDTITIVRSDGREDTVLQTRWTQKGRLKIHEIMTEFGYEANLGGA
soluble on expression in E. coli: not soluble

MATVKIKFRPSSVDGKEGTVYYQVIHVRVARQISTSYRLFPAEWDKRRARIVAAPSDEGRRQHLSLLEGKIMEDTDRLEGIITTLERRRGAFTADDVVSAFNGGHYSLSFPVFMREVINGLKRLGKIRTSETYTSTLNSFIRFMEGRDVLPDDMDSDLMVAYEAWLESGGVSMNTISFYMRNLRAVYNRAVEKGLTVQRFPFKHVYTGVEKTTKRAVPLHVIKRLKSLDLSFEPAKAYARDMLLFSFYTRGMSMVDMAFLKKKDLNNGILSYRRKKTGQQLLIKWEPCMQEIVDRYNIPGSPYLLSVIDRPGTDERKQYINASHRINRHLKVLGKELGMSVPLTHYVARHSWASAARSKNIPISVISEGMGHDSETTTRIYLASLDTATIDRANKLILKSLQI
soluble on expression in E. coli: not soluble
